One data set deals with follicular lymphoma. The following applies: double-refractory cases; cited from earlier work.
A further data set concerns T cells. The experiment in a line: T-cell activation with immobilized anti-CD3 in presence or absence of lenalidomide. The format is cell-based. As to conditions: 5 or 50 μM lenalidomide, CD3 crosslinking, 3 days; compared to no lenalidomide. The protocol:
T cells were pre-incubated with assay medium or lenalidomide in the absence or presence of CD3 crosslinking by immobilized anti-CD3 for 3 days (as indicated on the x-axes), after which upregulation of CD69, CD25, PD-1 and LAMP-1 on CD4^+ and CD8^+ T cells was determined by flow cytometry. Data shown are geomean fluorescence intensities (FI) for four donors (each circle represents one condition for one donor). Pre-incubation conditions are shown on the x-axis.
(§1) This experiment was performed to determine the impact of lenalidomide on Duobody-CD3xCD20-induced T-cell activation and T-cell-mediated cytotoxicity.
(§2) Briefly, T cells were activated with immobilized anti-CD3 in the presence (5 or 50 μM) or absence of lenalidomide for 3 days. […] T cells that were activated in the presence or absence of lenalidomide were subsequently tested for their cytotoxic capacity in response to epcoritamab.

The target of another data set is T1, CD20 (Homo sapiens, UniProt P11836).
T1 sequence (P11836 1-297): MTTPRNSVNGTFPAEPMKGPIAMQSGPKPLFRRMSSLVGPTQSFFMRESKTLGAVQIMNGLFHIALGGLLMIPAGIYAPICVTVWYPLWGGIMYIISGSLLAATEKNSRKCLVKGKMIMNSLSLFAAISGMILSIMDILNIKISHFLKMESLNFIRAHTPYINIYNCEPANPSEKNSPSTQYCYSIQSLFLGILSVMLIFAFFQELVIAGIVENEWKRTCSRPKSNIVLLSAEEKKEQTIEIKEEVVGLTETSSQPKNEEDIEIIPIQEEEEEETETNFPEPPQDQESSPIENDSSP
The following applies: rituximab versus IgG1-CD20; bind to a different epitope; cited from earlier work.

The subject of data set [1] is CD20-expressing Daudi cells. The experiment in a line: DuoBody-CD3xCD20-induced T-cell-mediated cytotoxicity assay. The following applies: T cells pre-treated with lenalidomide and anti-CD3; E:T ratio 2:1. The format is cell-based. On the procedure:
T cells were incubated with (5 or 50 μM) or without lenalidomide in the absence or presence of immobilized anti-CD3 for 3 days. T cells were then used in a cytotoxicity assay with DuoBody-CD3xCD20 or DuoBody-CD3xctrl (containing a CD3 arm and a non-binding control arm) and CD20-expressing Daudi cells as target cells (E:T ratio 2:1). Data shown are average percentages cytotoxicity ±SD of duplicates, normalized to medium control (no antibody, no lenalidomide).
as §1, §2

For the next data set, the system named is R/R B-NHL. Description: epcoritamab monotherapy clinical trial (NCT03625037). The format is in vivo, human. The following applies: R/R B-NHL patients, preliminary data. The source says: Epcoritamab as monotherapy is currently in a clinical trial for the treatment of R/R B-NHL (ClinicalTrials.gov Identifier: NCT03625037).
For a further data set, the system named is R/R follicular lymphoma. Description: Phase 1b study of epcoritamab with rituximab and lenalidomide (R^2). The data set is classed as in vivo, human. The following applies: preliminary data. The protocol:
The trial is conducted in 2 parts: dose escalation (Part 1) and expansion (Part 2). Subjects participate in only one part. Both parts consist of a screening period, a treatment period, a safety follow-up period, and a survival follow-up period.
The Part 1 dose escalation assesses the initial safety, tolerability, and clinical activity of epcoritamab in combination with R^2. Epcoritamab is initially be administered in combination with R^2 in a 3-subject cohort. DLTs are evaluated during the first 28 days. […]
In Part 2, epcoritamab is administered (with the dosing regimen determined in the dose escalation part) in combination with R^2. […]
Disease response is assessed according to both Lugano criteria (described in Cheson et al., J Clin Oncol 2014; 32:3059-68 (see, in particular, Table 3 in Cheson et al., 2014) and LYRIC (Table 8) to inform decisions on continuation of treatment. […]
Safety is assessed by measuring adverse events, laboratory test results, ECGs, vital sign measurements, physical examination findings, and ECOG performance status. Also assessed are immune effector cell-associated neurotoxicity syndrome (e.g., as described by Lee et al., Biol BloodMarrow Transplant 2019; 25:625-638), constitutional symptoms (B symptoms), tumor flare reaction, and survival. […]

Data set [2] concerns CD20-expressing Raji-luc tumor cells. As to conditions: NOD-SCID mice injected with Raji-luc tumor cells and PBMCs; even in presence of excess IgG1-RTX-FEAR; cited from earlier work.
Data set [3] has as its system primary DLBCL and follicular lymphoma patient biopsies. As to conditions: cited from earlier work.

Regarding `CC[C@H](Nc1ncnc2[nH]cnc12)c1nc2cccc(F)c2c(=O)n1-c1ccccc1` [idelalisib], in the data set on follicular lymphoma, the “1-year PFS” value is listed as 43% and the toxicities result is “several toxicities leading to treatment discontinuation”.

Consider `Nc1cccc2c1CN(C1CCC(=O)NC1=O)C2=O` (centres unmarked) [lenalidomide, 3-(4-Amino-1-oxo-1,3-dihydro-2H-isoindol-2-yl) piperidine-2,6-dione], for which the “T-cell activation (CD69, CD25 upregulation, release of granzyme B and IFNγ)” value in the data set with T cells is “increased T-cell activation”.

In the case of “IgG1-CD20: antibody of which the CD20 arm of epcoritamab is derived”, in the data set with CD20, the “competition for CD20 binding” value was “compete for CD20 binding”.

For “epcoritamab: IgG1 bispecific CD3xCD20 antibody; heavy/light chain pairs SEQ ID NOs: 24/25 and 26/27; CAS 2134641-34-0”, the “cytotoxicity (dose response)” value in data set [1] was “Higher maximum percent cytotoxicity and higher activity at lower epcoritamab concentrations”. Moreover, in the data set on R/R B-NHL (including 60 mg), the tolerated dose result is reported as “at least 48 mg”. The dose-limiting toxicities result in the data set with R/R B-NHL is given as “no dose-limiting toxicities reported”. Besides, the “incidence of CRS compared with single-agent epcoritamab” value in the data set on R/R follicular lymphoma is “relatively lower incidence of CRS with the combination”. Further, in data set [2], the tumor growth entry is listed as “effectively reduce tumor growth”. The tumor cell kill entry in data set [3] (biopsy taken 2 weeks after administering the anti-CD20 antibody) was “up to 40%”. In addition, in data set [3], the T-cell-mediated cytotoxicity result was “induced T-cell-mediated cytotoxicity”.

Values taken from patent US20230312758A1, “BISPECIFIC ANTIBODY AGAINST CD3 AND CD20 IN COMBINATION THERAPY FOR TREATING FOLLICULAR LYMPHOMA” (GENMAB A/S, priority 2020, published 2023).
